Results taken from the supplement of paper PMC9732359.
± gives the uncertainty stated by the source.

Test: protein stability index of a GFP-peptide fusion (yeast GPS) (PSI 1-4); higher = more stable; sorted into four equal gates, so the index is relative within each strain
Method in brief: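 Plasmids isolated from each sorting gate were PCR-amplified and Illumina-sequenced, and barcodes assigned the reads to strains. The gates, four of equal size, were set by GFP/Cherry fluorescence ratio on mid-log cultures in leucine-free medium. These cultures were yeast carrying a pooled library of tiled 17-residue yeast protein peptides fused downstream of GFP on a plasmid that also expresses Cherry. The protein stability index is the sum of every gate's read frequency times its gate number.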

Sequence	protein stability index (doa10∆)	protein stability index (pdr5∆)	protein stability index (san1∆)	protein stability index (ubr1∆)
GATYRGKLVESEDSMNV [SMD3]	3.17 ± 0.084	2.73 ± 0.053	3.01 ± 0.06	3.33 ± 0.055
EDFMDIPKPRTAGKTSV [SNF2]	2.67 ± 0.14	3.24 ± 0.085	3.2 ± 0.18	3.08 ± 0.06
SFLGEAKSMAFLKEVLS [YML103C/NUP188]			2.48 ± 0.18	2.54 ± 0.21
LFPIVKKHGKTDYFLPK [YJL039C/NUP192]	2.46 ± 0.2	2.66 ± 0.11	2.58 ± 0.15	2.08 ± 0.062
NSKDHKKITLQLLDTSN [SIN4]	3.07 ± 0.07	3.39 ± 0.078	3.04 ± 0.074	2.96 ± 0.053
QMLIQGVWDVDNPLRQI [BRR2]	3.54 ± 0.13	3.26 ± 0.19	3.47 ± 0.091	2.78 ± 0.14
ENGTHNDEVNEDEEDDN [YCG1]	3.42 ± 0.1	3.23 ± 0.12	3.54 ± 0.11	3.49 ± 0.14
KRKEELVSTLTTGISST [SMC2]	2.3 ± 0.061	2.07 ± 0.052	2.61 ± 0.086	2.11 ± 0.045
EMDSVSKSMKFSRRFDC [CSN9]	2.56 ± 0.11	2.6 ± 0.076	2.71 ± 0.054	2.85 ± 0.047
MLLEEQLEYKRGEIREI [MED7]		2.92 ± 0.28	2.69 ± 0.29	
IPISSETTIDDLPISST [SMC1]	2.68 ± 0.047	2.72 ± 0.061	2.68 ± 0.047	2.99 ± 0.041
VRGGNIEIMGILMGFTL [RRI1]	2.32 ± 0.074	2.56 ± 0.092	2.31 ± 0.16	2.9 ± 0.096
EKQHENAVLELGTVQRE [SMC3]		3.54 ± 0.26		
TITNSSSSSDIIVPDLI [YML103C/NUP188]	2.87 ± 0.081	3.07 ± 0.052	2.83 ± 0.061	3.05 ± 0.056
RYNRAVPDSKIRIYDLG [RPL10]	2.53 ± 0.092	3.04 ± 0.15	1.89 ± 0.19	2.55 ± 0.1
KSSGSSMATPTHSDSHE [ROX3]	3.08 ± 0.16	2.97 ± 0.1	2.82 ± 0.064	2.52 ± 0.091
AVSAASVVSMSNDVLKP [SIR2]	2.5 ± 0.048	3.11 ± 0.064	2.82 ± 0.063	2.75 ± 0.04
LDVSSDRRKARKAYFTA [RPL26A]	1.79 ± 0.081	1.26 ± 0.082	2.42 ± 0.1	2.12 ± 0.07
GTISKLENKENGLLNEI [SMC2]	3.45 ± 0.29	3.28 ± 0.087	3.36 ± 0.1	3.35 ± 0.17
TKLYFDVNEKIRFRIER [RPC25]	2.97 ± 0.11	2.92 ± 0.097	2.81 ± 0.084	2.92 ± 0.17
CEIHPSMILGVAASIIP [RPB2]	1.35 ± 0.11	1.42 ± 0.1	1.14 ± 0.15	1.35 ± 0.16
AKKRRPAAKGKNLSFKR [RRP6]	2.9 ± 0.12	2.92 ± 0.09	2.67 ± 0.095	2.81 ± 0.085
NDPEYMDTSDDAFVATA [DLS1]	3.1 ± 0.17	3.49 ± 0.16	3.33 ± 0.14	
QFSQLNDPNAAVNMTQN [MED6]	2.71 ± 0.089	2.91 ± 0.1	2.86 ± 0.039	2.62 ± 0.06
QLFRTNKVQIMIATNVA [PRP28]	1.5 ± 0.055	1.43 ± 0.064	1.48 ± 0.081	1.7 ± 0.036
NTENNDPDIPMTIDLEP [IRR1]	3.07 ± 0.17	2.94 ± 0.16	2.48 ± 0.19	3.14 ± 0.12
NEISRNGTMINEVIDKL [PCI8]	2.59 ± 0.067	2.51 ± 0.066	2.48 ± 0.072	2.78 ± 0.065

Sequence	protein stability index (doa10∆)	protein stability index (pdr5∆)	protein stability index (san1∆)	protein stability index (ubr1∆)
DINQAKDFIENVNNRFD [BRN1]	3.25 ± 0.12	3.23 ± 0.086	3.3 ± 0.067	3.08 ± 0.056
VSDDESNGEVLEVGKNN [RPN14]	3.19 ± 0.1	2.99 ± 0.16	3.07 ± 0.16	3.24 ± 0.056
IFLQQFLQELLKKVQQQ [SWI1]	2.94 ± 0.098	2.37 ± 0.12	2.56 ± 0.11	2.5 ± 0.13
VSNENKKNIDYQNRSTR [RRI1]	3.13 ± 0.065	3.04 ± 0.067	3.2 ± 0.062	3.25 ± 0.055
KRQLIKERNQKFQLQNQ [YIL149C/MLP2]	2.75 ± 0.096	3.17 ± 0.11	2.99 ± 0.059	2.78 ± 0.05
SPDGRNFQVEYAVKAVE [PRE10]	2.8 ± 0.079	2.81 ± 0.077	2.65 ± 0.07	2.37 ± 0.085
LERYVKRCMDDLNPLKT [RPO31]	3.08 ± 0.078	3.15 ± 0.058	3.27 ± 0.043	3.16 ± 0.041
TMYMEVYTAIYNYCVNK [CDC53]	1.63 ± 0.047	1.55 ± 0.047	1.51 ± 0.061	1.7 ± 0.031
TNLSGGEKTLSSLALVF [SMC4]	3.34 ± 0.083	3.2 ± 0.097	3.04 ± 0.25	3.37 ± 0.054
LSASWDKTLRLWDVATG [ASC1]	3.52 ± 0.22	3.22 ± 0.12		3.41 ± 0.072
YAKEDAFSYPRMYEEAS [RPN2]	2.66 ± 0.091	1.35 ± 0.082	1.27 ± 0.11	1.43 ± 0.058
ATEKKSSSPLAMSETLS [PRE8]	2.33 ± 0.076	2.77 ± 0.068	2.44 ± 0.1	2.39 ± 0.055
TDVLEISKQRTFAVILF [YMR129W/POM152]	1.93 ± 0.056	2.52 ± 0.054	2.41 ± 0.058	2.21 ± 0.041
DLTMGQVGERIKQTFKN [RPO21]	3.31 ± 0.15	2.81 ± 0.19	3.25 ± 0.073	3.23 ± 0.11
KADAQREKALNEEAEAR [RPL19A]	3.22 ± 0.083	3.45 ± 0.2	3.23 ± 0.081	3.33 ± 0.098
RVKVHFDQAGKKVSRRN [RPL13A]	3.46 ± 0.12	3.37 ± 0.1	3.26 ± 0.12	3.31 ± 0.079
HPIRVLMASVILDSLPS [YDL116W/NUP84]	1.7 ± 0.051	1.52 ± 0.042	1.62 ± 0.056	1.62 ± 0.048
EQKLVDLLKFENISLAE [BRR2]	2.65 ± 0.065	2.93 ± 0.066	2.71 ± 0.049	2.58 ± 0.055
MKDKEINIQKYNNNTIR [CSI1]	2.42 ± 0.22	2.4 ± 0.15		2.52 ± 0.1
DNETKAMLINLILRDFL [RPN3]	2.55 ± 0.095	2.66 ± 0.087	2.58 ± 0.069	2.81 ± 0.075
QVRKKQIETINFLRLPA [YDL116W/NUP84]	3.07 ± 0.11	2.89 ± 0.097	2.86 ± 0.07	2.81 ± 0.11
VQLLLHINSILLARVIQ [SNF11]	1.84 ± 0.12	1.27 ± 0.076		1.47 ± 0.087
ETLVLSYFSPINSSNEA [YCG1]	2.67 ± 0.096	1.55 ± 0.087	1.25 ± 0.19	2.13 ± 0.055
ILKKSLMTSHTKGDTSK [RTT102]	2.6 ± 0.11	3.05 ± 0.085	2.81 ± 0.085	3.05 ± 0.13
NNIKNGTNNISQHGQGN [YDL088C/ASM4]	2.93 ± 0.046	2.87 ± 0.033	3.05 ± 0.034	3.06 ± 0.021
IVNNDLPTTVVSNPGDN [MED2]	2.84 ± 0.051	2.96 ± 0.052	2.82 ± 0.052	3.02 ± 0.033
